Source: US20250357519A1, “APPLICATIONS OF O2-INSENSITIVE FORMATE DEHYDROGENASE” (UNIVERSITY OF MARYLAND, BALTIMORE, priority 2022, published 2025)

Substrate: O=CO
Test: purified protein, by the assay type

B1: Desulfovibrio vulgaris Hildenborough (DvH) FDH2, recombinant Strep-tag II-tagged (FDH2^Rec), large subunit DVU2482 SEQ ID NO: 31, small subunit DVU2481 SEQ ID … (protein)
chain: AELKIAKAKVTPSVCCFCAVGCGLLVYTDTQTGRSINIEGDPDHPTNEGTLCPKGASIWQTTERSKRVTKVLYRAPGAAAWEEKSWDWALPRIARKIKETRDATFELTNDKGQTVNRTRGIASVGSAAVDNEEGWLMQAMMRALGLVYIESHARIUHSSTVGALAESYGRGAMTNHWIDLKNSDVILIMGSNAAENHPISFKWVTRAQERGATLIHVDPRFTRTSAKADIHAHIRSGTDIAFFGGLIRYIMENDLFFRQYVVDYTNASYIVGADYGFADGLFTGFDAEKGTYNTKKWAFAADENGMTLKDPTLNDPRCVFQLMKAHYARYDRKTVSDVTGISEEQLATLWSTFASTGKPDRAGTILYAMGQCQHTVGVQNIRALSMIQLLLGNIGIAGGGVNALRGESNVQGTTDISLLCDNLSGYLPTPKASWATFDDYVKGTTPVDKDPKSANWWSNRGKYLASYMKSVYPTASHQDGYLWHPKVDDGKITDYSWLQIFERMSKGGFKGAFVWGQNPCAGGANAGKNRKAMETLDWMVVVNLFENESSLFWKGPGVDPAKVKTEVFFLPACMSVEKGGSIANSGRWLQWREPGPKPMGDSRSDGDIVLDLYDEIRKLYREEKGAFPEPVLALDTDYRTDGKYDHHKVAKTLNGKFLTDVTIGDKTYKAGQQVPGFAMLQADGSTTSGCWIFTGCYTDAGNMMARRDRTQTPEQAAIGLFPNWSYAWPANRRILYNRAAVDMTGKPFDPKRAVIAWNGEKWVGDVPDGGWKPGEKLPFIMIREGRGQLFGPGRVDGPFPEHYEPFESPLESHPFSKQRVNPTALAFSHEPKAVRDKRYPFICTTYRVTEQWQSGTMTRNTGWLKEMQPEGFCEISRELAKELGIANGDAVVLESLRGKVQVVAIVTPRLKPFKVMGEVMHEVGIPWQFGWGQHVGKGDSANLLSPSVGDPNTGIPETKVFMVNLRKA
Km (other: 2 mM BV (anaerobic), full progress curve, calculated from kcat and kcat/Km, pH 8.0, 25.0 °C): 2.1 ± 0.1 µM
Km (other: BV (2 mM), anaerobic, initial velocities, 3 replicates, pH 8.0, 25 °C): 3.5 ± 0.9 µM
Km (other: BV (20 mM), anaerobic, initial velocities, 3 replicates, pH 8.0, 25 °C): 7 ± 3 µM
Km (other: DCPIP (air), full progress curve, calculated from kcat and kcat/Km, pH 8.0): 4.5 ± 0.4 µM
Km (other: DCPIP (anaerobic), full progress curve, calculated from kcat and kcat/Km, pH 8.0): 3.7 ± 0.3 µM
Km (other: PES/DCPIP, air, initial velocities, 10 replicates, pH 8.0): 7 ± 1 µM
Km (other: PES/DCPIP, anaerobic, initial velocities, 5 replicates, pH 8.0): 5.5 ± 0.5 µM
